Data from patent US20260098858A1 (NAVROGEN, published 2026).

B1: soluble human ICAM-1/CD54 (receptor)
chain: QTSVSPSKVILPRGGSVLVTCSTSCDQPKLLGIETPLPKKELLLPGNNRKVYELSNVQEDSQPMCYSNCPDGQSTAKTFLTVYWTPERVELAPLPSWQPVGKNLTLRCQVEGGAPRANLTVVLLRGEKELKREPAVGEPAEVTTTVLVRRDHHGANFSCRTELDLRPQGLELFENTSAPYQLQTFVLPATPPQLVSPRVLEVDTQGTVVCSLDGLFPVSEAQVHLALGDQRLNPTVTYGNDSFSAKASVSVTAEDEGTQRLTCAVILGNQSQETLQTVTIYSFPAPNVILTKPEVSEGTEVTVKCEAHPRAKVTLNGVPAQPLGPRAQLLLKATPEDNGRSFSCSATLEVAGQLIHKNQTRELRVLYGPRLDERDCPGNWTWPENSQQTPMCQAWGNPLPELKCLKDGTFPLPIGESVTVTRDLEGTYLCRARSTQGEVTRKVTVNVLSPRYE
notes: also called sICAM-1; SICAM-1

How the values were obtained:
[1] = biological target: T1, human serum albumin (human, UniProt P02768 25-609); assay: ELISA: immobilized control protein, biotinylated sICAM-1 probe (FIG. 1B)
T1 construct: also called HSA
Excerpt: (§1) Experiments represent a minimum of triplicate wells. Statistical analysis was done using the Student's T-test.

[2] = biological target: B1; assay: ELISA: immobilized monomeric CH2 domain, biotinylated sICAM-1 probe (FIG. 4B)
Description: as §1
First, fragment domain analysis was performed. […] Briefly, plates were coated with 100 μL of 2.5 μg/mL of full length IgG1 antibody or fragments for 1 hour at room temperature in 0.05 M carbonate buffer. Plates were washed in phosphate buffered saline (PBS) plus 0.1% tween-20 (PBS-T) and blocked with 200 uLs of PBS plus 1% BSA. […] Plates were then washed three times with PBS-T, and quantified using TMB colorimetric substrate (Pierce). Reactions were stopped using 0.1N H₂SO₄ and A450 quantitated using a Varioskan plate reader.

Binder	binding result [1]	binding result [2]
B1	no binding (tested: 5 µg/mL biotinylated sICAM-1)	
secreted recombinant monomeric heavy chain CH2 domain (other, human, UniProt P01857 114-223, looked up, domain: CH2) APELLGGPSVFLFPPKPKDTLMISRTPEVTCVVVDVSHEDPEVKFNWYVDGVEVHNAKTKPREEQYNSTYRVVSVLTVLHQDWLNGKEYKCKVSNKALPAPIEKTISKAK		no binding (tested: 0.5 µg/mL biotinylated sICAM-1)
